Measured values published in patent US20090149389A1.

Target: MAPKAP kinase II (MK2) (UniProt P49137)
Assay: cell-based or functional assay

Chain of MAPKAP kinase II (MK2) (P49137 whole entry): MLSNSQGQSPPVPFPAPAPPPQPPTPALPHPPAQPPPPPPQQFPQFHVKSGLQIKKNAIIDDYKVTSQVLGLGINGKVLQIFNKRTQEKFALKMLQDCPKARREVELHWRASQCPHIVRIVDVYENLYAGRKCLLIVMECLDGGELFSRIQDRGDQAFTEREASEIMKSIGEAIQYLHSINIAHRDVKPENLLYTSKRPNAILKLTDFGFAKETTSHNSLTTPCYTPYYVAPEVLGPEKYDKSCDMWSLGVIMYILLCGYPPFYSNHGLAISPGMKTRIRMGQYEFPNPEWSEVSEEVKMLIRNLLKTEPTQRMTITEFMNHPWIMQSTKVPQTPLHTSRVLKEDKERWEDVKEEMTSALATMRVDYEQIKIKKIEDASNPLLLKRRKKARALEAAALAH

KALNRdQLGVAA (peptide)
% of … [SEQ ID NO: 124] Reaction Velocity at an Inhibitor Concentration of 100 µM: 276%
